Reference: PMC5792912

B1: COMT in HLC (Homo sapiens) (protein)
chain: MGDTKEQRILNHVLQHAEPGNAQSVLEAIDTYCEQKEWAMNVGDKKGKIVDAVIQEHQPSVLLELGAYCGYSAVRMARLLSPGARLITIEINPDCAAITQRMVDFAGVKDKVTLVVGASQDIIPQLKKKYDVDTLDMVFLDHWKDRYLPDTLLLEECGLLRKGTVLLADNVICPGAPDFLAHVRGSSCFECTHYQSFLEYREVVDGLEKAIYKGPGSEAGP
notes: Pooled human liver cytosol (HLC) from seven male donors; tissue Research Institute for Liver Diseases (Shanghai, China) Lot; QROX; host or cells: pooled human liver cytosol, seven male donors
B2: recombinant human soluble COMT (S-COMT) (Homo sapiens) (protein)
chain: B1 chain
notes: made in house

Key:
Type in all cases: in vitro ADME
[1] = substrate: O=C(O)Cc1cc(=O)oc2c(O)c(O)ccc12; test: Methylation kinetics in pooled human liver cytosol (HLC); conditions: other: HLC 0.5 mg/ml, substrate 0.1–40 µM, 5 min; best-fit value ± s.e.; pH 7.4
Experimental: (§1) Reaction mixtures were pre-incubated at 37°C for 5 min and initiated by the addition of SAM to a final concentration of 0.4 mM. The samples were incubated for a certain period of time and the reaction was terminated by the addition of 200 µl ice-cold acetonitrile and then centrifuged at 20 000g, 4°C, for 20 min. Control incubations were performed either without human liver cytosol, or without SAM or without substrate. The supernatants were subjected to ultra-fast liquid chromatography (UFLC) coupled with a diode array detector (DAD) and an electrospray ionization (ESI) mass spectrometer (MS) analyzer.
(§2) 7,8-DHCs and their methylated conjugates were analysed by a UFLC spectrometry system (Shimadzu, Kyoto, Japan), equipped with two LC-20AD pumps, a DGU-20A3 vacuum degasser, a SIL-20ACHT auto-sampler, a CTO-20AC column oven, an SPD-M 20A DAD, a CBM-20A communications bus module, a mass detector (2010EV) with an ESI interface and a computer equipped with UFLC-MS SOLUTION v. 3.41 software. A Shimadzu ODS (75.0 × 2.0 mm, 3 µm) analytical column was used to separate 7,8-DHCs and their methylated conjugates. Column temperature was kept at 40°C. […] The methylation samples were stable over 72 h at 4°C. 7,8-DHC methylation was quantified by the standard curves of the methylated conjugates at the detector wavelength of 325 nm, which were linear from 0.01 to 10 µM (the correlation coefficient was 0.999).
(§3) For estimating kinetic parameters, 7,8-DHCs (0.1–40 µM) were incubated with pooled HLC and S-COMT. 7,8-DHCs (0.1–40 µM) were incubated with HLC or S-COMT for 5 min, using a microsomal protein concentration of 0.5 mg ml^−1 or 0.002 mg ml^−1 for HLC and S-COMT, respectively. Kinetic constants for 7,8-DHCs methylation by HLC and S-COMT were obtained by fitting the Michaelis–Menten kinetics equation (3.1) to experimental data.
(§4) For the Michaelis–Menten kinetic model, 3.1 v=Vmax×[S]/Km+[S], where v is the rate of reaction, [S] is the substrate concentration, Vmax is the maximum velocity estimate and Km is the apparent affinity constant.
(§5) All incubations were performed in duplicate. Kinetic constants were obtained using GraphPad PRISM 6 (GraphPad Software, Inc. La Jolla, CA) software.

[2] = substrate: Cc1cc(=O)oc2c(O)c(O)ccc12; test: as above; conditions: other: HLC 0.5 mg/ml, substrate 0.1–40 µM, 5 min; best-fit value ± s.e.; pH 7.4
Experimental: as §1, §2, §3, §4, §5

[3] = substrate: O=c1ccc2ccc(O)c(O)c2o1; test: as above; conditions: other: HLC 0.5 mg/ml, substrate 0.1–40 µM, 5 min; best-fit value ± s.e.; pH 7.4
Experimental: as §1, §2, §3, §4, §5

[4] = substrate: O=c1cc(-c2ccccc2)c2ccc(O)c(O)c2o1; test: as above; conditions: other: HLC 0.5 mg/ml, substrate 0.1–40 µM, 5 min; best-fit value ± s.e.; pH 7.4
Experimental: as §1, §2, §3, §4, §5

[5] = substrate: O=C(O)Cc1cc(=O)oc2c(O)c(O)ccc12; test: Methylation kinetics with recombinant human soluble COMT; conditions: other: S-COMT 0.002 mg/ml, substrate 0.1–40 µM, 5 min; best-fit value ± s.e.; pH 7.4
Experimental: as §1, §2, §3, §4, §5

[6] = substrate: Cc1cc(=O)oc2c(O)c(O)ccc12; test: as above; conditions: other: S-COMT 0.002 mg/ml, substrate 0.1–40 µM, 5 min; best-fit value ± s.e.; pH 7.4
Experimental: as §1, §2, §3, §4, §5

[7] = substrate: O=c1ccc2ccc(O)c(O)c2o1; test: as above; conditions: other: S-COMT 0.002 mg/ml, substrate 0.1–40 µM, 5 min; best-fit value ± s.e.; pH 7.4
Experimental: as §1, §2, §3, §4, §5

[8] = substrate: O=c1cc(-c2ccccc2)c2ccc(O)c(O)c2o1; test: as above; conditions: other: S-COMT 0.002 mg/ml, substrate 0.1–40 µM, 5 min; best-fit value ± s.e.; pH 7.4
Experimental: as §1, §2, §3, §4, §5

| Protein | Km [1] [µM] | Km [2] [µM] | Km [3] [µM] | Km [4] [µM] | Km [5] [µM] | Km [6] [µM] | Km [7] [µM] | Km [8] [µM] |
| --- | --- | --- | --- | --- | --- | --- | --- | --- |
| B1 | 7.52 ± 0.64 | 0.20 ± 0.029 | 0.21 ± 0.036 | 0.089 ± 0.015 | – | – | – | – |
| B2 | – | – | – | – | 7.93 ± 1.31 | 1.07 ± 0.10 | 0.48 ± 0.071 | 0.22 ± 0.034 |
